Bridge positions count the residues as written; N and C are the ends. Square brackets hold non-standard residues; d marks the D form. Ends that are not written are not given here. * marks the point of attachment. Acetyl(2-(4-imidazolyl)) = O=C(Cc1c[nH]cn1)*; Aib = CC(C)(N)C(=O)O
T1: human GIP receptor (human, UniProt P48546 22-466)
T1 sequence (looked up): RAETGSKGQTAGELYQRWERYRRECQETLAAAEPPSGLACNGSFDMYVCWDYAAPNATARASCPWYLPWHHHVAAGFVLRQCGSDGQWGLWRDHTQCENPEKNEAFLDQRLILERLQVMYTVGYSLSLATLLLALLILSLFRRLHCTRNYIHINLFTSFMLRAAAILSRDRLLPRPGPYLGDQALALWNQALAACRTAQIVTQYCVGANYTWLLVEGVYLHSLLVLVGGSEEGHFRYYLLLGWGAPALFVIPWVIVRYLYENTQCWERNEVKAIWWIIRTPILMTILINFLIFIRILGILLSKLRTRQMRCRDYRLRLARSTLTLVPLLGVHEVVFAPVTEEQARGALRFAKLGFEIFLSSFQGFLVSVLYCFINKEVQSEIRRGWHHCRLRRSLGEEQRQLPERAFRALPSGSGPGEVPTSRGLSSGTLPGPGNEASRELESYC


Assays:
Test in all cases: cell-based or functional assay
human GCG receptor = human GCG receptor (human, UniProt P47871 26-477)
Sequence of human GCG receptor (P47871 26-477): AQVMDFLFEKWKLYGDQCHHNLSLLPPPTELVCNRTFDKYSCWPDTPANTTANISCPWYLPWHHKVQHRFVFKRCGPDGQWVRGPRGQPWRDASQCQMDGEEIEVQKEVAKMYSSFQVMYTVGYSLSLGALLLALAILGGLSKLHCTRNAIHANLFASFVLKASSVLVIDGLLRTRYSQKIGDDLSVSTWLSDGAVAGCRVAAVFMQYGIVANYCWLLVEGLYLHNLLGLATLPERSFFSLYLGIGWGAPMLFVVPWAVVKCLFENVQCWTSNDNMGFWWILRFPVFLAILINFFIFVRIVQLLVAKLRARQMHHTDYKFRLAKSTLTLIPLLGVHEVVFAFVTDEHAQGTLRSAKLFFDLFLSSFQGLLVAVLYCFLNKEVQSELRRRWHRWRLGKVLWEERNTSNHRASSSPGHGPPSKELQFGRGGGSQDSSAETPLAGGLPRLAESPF

human GIP receptor = target: T1, human GIP receptor
human GLP-1 receptor = human GLP-1 receptor (human, UniProt P43220 24-463)

Row | Binder | In vitro activity (%) compared with native peptide, vs Glucagon (human GCG receptor) [%] | In vitro activity (%) compared with native peptide, vs GIP (human GIP receptor) [%] | In vitro activity (%) compared with native peptide, vs GLP-1 (human GLP-1 receptor) [%]
1 | {Acetyl(2-(4-imidazolyl))}-[Aib]EGTFTSDYSIAMDEIHQKDFVDWLLAEKC (bridge 15-19; numbers in words are those of the source; also: ring between positions 16 and 20, type not given here) [triple agonist of SEQ ID NO: 91] | 16.8 | 0.3 | 31.9
2 | Y[Aib]QGTFTSDYSKYLDEKAAKEFVQWLLDHHPSSGQPPPSC (bridge 16-20) [triple agonist of SEQ ID NO: 75] | 8.5 | 18 | 35.1
3 | [Acetyl(2-(4-imidazolyl))][Aib]EGTFTSDYSIAMDEIHQKDFVNWLLAQC (bridge 16-20; not fully specified) [triple agonist of SEQ ID NO: 83] | 1.3 | 0.4 | 47.3
4 | {Acetyl(2-(4-imidazolyl))}-[Aib]QGTFTSDYSKYLDEKRQKEFVQWLLNTKC (bridge 15-19; numbers in words are those of the source; also: ring between positions 16 and 20, type not given here) [triple agonist of SEQ ID NO: 88] | 0.3 | < 0.1 | 9.6
5 | {Acetyl(2-(4-imidazolyl))}-[Aib]QGTFTSDYSKYLDEKRQKEFVNWLLAQKC (bridge 15-19; numbers in words are those of the source; also: ring between positions 16 and 20, type not given here) [triple agonist of SEQ ID NO: 93] | 0.3 | 0.7 | 5.7
6 | [Acetyl(2-(4-imidazolyl))][Aib]EGTFTSDYSIAMDEIHQKDFVNWLLAQKC (bridge 16-20; not fully specified) [triple agonist of SEQ ID NO: 90] | < 0.1 | < 0.1 | 7.4
7 | {Acetyl(2-(4-imidazolyl))}-[Aib]QGTFTSDYSIAMDEIHQKDFVNWLLNTC (bridge 15-19; numbers in words are those of the source; also: ring between positions 16 and 20, type not given here) [triple agonist of SEQ ID NO: 87] | < 0.1 | < 0.1 | 0.9
8 | {Acetyl(2-(4-imidazolyl))}-[Aib]QGTFTSDYSIAMDEIHQKDFVNWLLNTKC (bridge 15-19; numbers in words are those of the source; also: ring between positions 16 and 20, type not given here) [triple agonist of SEQ ID NO: 94] | < 0.1 | < 0.1 | 0.5
9 | H[Aib]QGTFTSDYSKYLDEKRQKEFVQWLLDTKC (bridge 16-20; also: ring between positions 16 and 20, type not given here) [triple agonist of SEQ ID NO: 78] | 14 | 0.12 | 51
10 | {Acetyl(2-(4-imidazolyl))}-[Aib]QGTFTSDYSKYLDEKRQKEFVQWLLNTC (bridge 15-19; numbers in words are those of the source; also: ring between positions 16 and 20, type not given here) [triple agonist of SEQ ID NO: 81] | 0.3 | < 0.1 | 7.8
11 | Y[Aib]QGTFTSDYSKYLDEKAAKDFVQWLLDHHPSSGQPPPSC (bridge 16-20; also: ring between positions 16 and 20, type not given here) [triple agonist of SEQ ID NO: 77] | 12.2 | 35.5 | 38.7
12 | Y[Aib]QGTFTSDYSKYLDEKRAKDFVQWLLDHHPSSGQPPPSC (bridge 16-20; also: ring between positions 16 and 20, type not given here) [triple agonist of SEQ ID NO: 76] | 47.6 | 11.7 | 10.3
13 | {Acetyl(2-(4-imidazolyl))}-[Aib]EGTFTSDYSIAMDEIHQKDFVDWLLAEC (bridge 15-19; numbers in words are those of the source; also: ring between positions 16 and 20, type not given here) [triple agonist of SEQ ID NO: 84] | < 0.1 | < 0.1 | 4.2
14 | H[Aib]QGTFTSDVSKYLDGQAAQEFVAWLLKGC [triple agonist of SEQ ID NO: 8] | 0.1 | < 0.1 | 14.2
15 | {Acetyl(2-(4-imidazolyl))}-[Aib]QGTFTSDYSKCLDEKRAKEFVQWLLDHHPSSGQPPPS (bridge 15-19) [triple agonist of SEQ ID NO: 74] | 0.9 | 1 | 12.9
16 | [Acetyl(2-(4-imidazolyl))][Aib]QGTFTSDYSIAMDEIHQKDFVNWLLAQC (bridge 16-20; not fully specified) [triple agonist of SEQ ID NO: 85] | < 0.1 | 0.3 | 4.3
17 | [Acetyl(2-(4-imidazolyl))][Aib]QGTFTSDYSIAMDEIHQKDFVNWLLAQKC (bridge 16-20; not fully specified) [triple agonist of SEQ ID NO: 92] | < 0.1 | 0.4 | 0.8
18 | {Acetyl(2-(4-imidazolyl))}-[Aib]QGTFTSDYSKYLDEKRQKEFVQWLLDTKC (bridge 15-19; numbers in words are those of the source; also: ring between positions 16 and 20, type not given here) [triple agonist of SEQ ID NO: 89] | 0.7 | < 0.1 | 7.1
19 | {Acetyl(2-(4-imidazolyl))}-[Aib]QGTFTSDYSKYLDEKRQKEFVQWLLDTC (bridge 15-19; numbers in words are those of the source; also: ring between positions 16 and 20, type not given here) [triple agonist of SEQ ID NO: 82] | 1.1 | < 0.1 | 9.5
20 | H[Aib]EGTFTSDYSIAMDEIHQKDFVNWLLAQKC (bridge 16-20; not fully specified) [triple agonist of SEQ ID NO: 79] | 4.9 | 1.4 | 41.5
21 | {Acetyl(2-(4-imidazolyl))}-[Aib]QGTFTSDYSKYLDEKRQKEFVNWLLAQC (bridge 15-19; numbers in words are those of the source; also: ring between positions 16 and 20, type not given here) [triple agonist of SEQ ID NO: 86] | 0.4 | 0.2 | 28.4
22 | H[Aib]QGTFTSDVSKYLDGQAAQEFVAWLLAGC [triple agonist of SEQ ID NO: 9] | 0.13 | < 0.1 | 32.1
